Substitutions are numbered along the chain they refer to. Names may count otherwise.
B1: human Kif5A, first 560 amino acids, wild type, fused to EGFP and a C-terminal 6xHIS tag, Q12840 S203C (protein)
chain: MAETNNECSIKVLCRFRPLNQAEILRGDKFIPIFQGDDSVVIGGKPYVFDRVFPPNTTQEQVYHACAMQIVKDVLAGYNGTIFAYGQTSSGKTHTMEGKLHDPQLMGIIPRIARDIFNHIYSMDENLEFHIKVSYFEIYLDKIRDLLDVTKTNLSVHEDKNRVPFVKGCTERFVSSPEEILDVIDEGKSNRHVAVTNMNEHSCRSHSIFLINIKQENMETEQKLSGKLYLVDLAGSEKVSKTGAEGAVLDEAKNINKSLSALGNVISALAEGTKSYVPYRDSKMTRILQDSLGGNCRTTMFICCSPSSYNDAETKSTLMFGQRAKTIKNTASVNLELTAEQWKKKYEKEKEKTKAQKETIAKLEAELSRWRNGENVPETERLAGEEAALGAELCEETPVNDNSSIVVRIAPEERQKYEEEIRRLYKQLDDKDDEINQQSQLIEKLKQQMLDQEELLVSTRGDNEKVQRELSHLQSENDAAKDEVKEVLQALEELAVNYDQKSQEVEEKSQQNQLLVDELSQKVATMLSLESELQRLQEVSGHQRKRIAEVLNGLMKDLSE
B2: human Kif5A, first 560 amino acids, wild type, fused to EGFP and a C-terminal 6xHIS tag, Q12840 R204W (protein)
chain: B1 chain with C203S, R204W
B3: human Kif5A, first 560 amino acids, wild type, fused to EGFP and a C-terminal 6xHIS tag, Q12840 R204Q (protein)
chain: B1 chain with C203S, R204Q
B4: human Kif5A, first 560 amino acids, wild type, fused to EGFP and a C-terminal 6xHIS tag, Q12840 M198T (protein)
chain: B1 chain with M198T, C203S
B5: human Kif5A, first 560 amino acids, wild type, fused to EGFP and a C-terminal 6xHIS tag, Q12840 E251K (protein)
chain: B1 chain with C203S, E251K
B6: human Kif5A, first 560 amino acids, wild type, fused to EGFP and a C-terminal 6xHIS tag, Q12840 S202N (protein)
chain: B1 chain with S202N, C203S

These binders were tested against T1, taxol-stabilized microtubules polymerized from bovine brain tubulin, Q6B856 (assay: MT pelleting assay (western blot densitometry)). Details: chain shown with the change; 5 mM AMPPNP; 2 µM tubulin; read off a plot.
T1 sequence (chain, as listed by the source, chain 1 of 2): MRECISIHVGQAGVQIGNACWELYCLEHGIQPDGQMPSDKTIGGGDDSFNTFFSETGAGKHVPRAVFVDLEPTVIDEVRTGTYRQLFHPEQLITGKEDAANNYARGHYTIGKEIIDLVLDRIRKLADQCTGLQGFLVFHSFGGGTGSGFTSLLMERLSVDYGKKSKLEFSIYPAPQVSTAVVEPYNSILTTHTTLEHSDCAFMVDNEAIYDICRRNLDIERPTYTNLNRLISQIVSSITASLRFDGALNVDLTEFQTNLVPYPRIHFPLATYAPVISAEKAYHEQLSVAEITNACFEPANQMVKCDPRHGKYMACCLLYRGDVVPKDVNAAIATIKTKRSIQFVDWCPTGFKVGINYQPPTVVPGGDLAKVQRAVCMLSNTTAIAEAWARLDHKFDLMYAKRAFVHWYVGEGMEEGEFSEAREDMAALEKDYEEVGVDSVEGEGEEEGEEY
T1 sequence (Q6B856 whole entry, chain 2 of 2): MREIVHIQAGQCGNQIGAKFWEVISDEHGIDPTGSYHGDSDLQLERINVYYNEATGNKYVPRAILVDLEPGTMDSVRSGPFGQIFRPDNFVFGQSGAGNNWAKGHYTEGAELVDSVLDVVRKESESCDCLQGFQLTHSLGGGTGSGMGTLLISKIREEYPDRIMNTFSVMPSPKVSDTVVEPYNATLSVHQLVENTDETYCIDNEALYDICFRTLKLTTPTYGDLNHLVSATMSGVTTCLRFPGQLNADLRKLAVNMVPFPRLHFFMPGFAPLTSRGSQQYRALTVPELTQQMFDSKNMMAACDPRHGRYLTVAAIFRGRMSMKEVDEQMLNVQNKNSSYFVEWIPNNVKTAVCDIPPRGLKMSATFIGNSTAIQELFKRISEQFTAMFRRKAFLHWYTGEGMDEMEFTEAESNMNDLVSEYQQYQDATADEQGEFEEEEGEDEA

**Q.** B1 was tested. Which response (fraction Kif5A bound) did it give?
**A.** Its response (fraction Kif5A bound) is 0.7.

**Q.** For B2, which response (fraction Kif5A bound) is on record?
**A.** Its response (fraction Kif5A bound) is 0.44.

**Q.** B3 was tested. Which response (fraction Kif5A bound) did it give?
**A.** Its response (fraction Kif5A bound) is 0.8.

**Q.** B4 was tested. Which response (fraction Kif5A bound) did it give?
**A.** Its response (fraction Kif5A bound) is 0.94.

**Q.** With B5 as the binder, how does the response (fraction Kif5A bound) read?
**A.** The response (fraction Kif5A bound) was 0.56.

**Q.** For B6, which response (fraction Kif5A bound) is on record?
**A.** The response (fraction Kif5A bound) was 0.9.

Same assay, conditions: chain shown with the change; 5 mM AMPPNP; 4 µM tubulin; read off a plot

**Q.** For B1, which response (fraction Kif5A bound) is on record?
**A.** Its response (fraction Kif5A bound) is 0.83.

**Q.** For B2, which response (fraction Kif5A bound) is on record?
**A.** The response (fraction Kif5A bound) was 0.41.

**Q.** How did the response (fraction Kif5A bound) turn out when B3 was run?
**A.** Its response (fraction Kif5A bound) is 0.73.

**Q.** With B4 as the binder, how does the response (fraction Kif5A bound) read?
**A.** Its response (fraction Kif5A bound) is 0.95.

**Q.** B5 was tested. Which response (fraction Kif5A bound) did it give?
**A.** The response (fraction Kif5A bound) was 0.63.

**Q.** For B6, which response (fraction Kif5A bound) is on record?
**A.** Its response (fraction Kif5A bound) is 0.91.

Same assay, conditions: chain shown with the change; 5 mM AMPPNP; 8 µM tubulin; read off a plot

**Q.** For B1, which response (fraction Kif5A bound) is on record?
**A.** Its response (fraction Kif5A bound) is 0.8.

**Q.** How did the response (fraction Kif5A bound) turn out when B2 was run?
**A.** The response (fraction Kif5A bound) was 0.36.

**Q.** Which response (fraction Kif5A bound) does the source give for B3 here?
**A.** The response (fraction Kif5A bound) was 0.76.

**Q.** With B4 as the binder, how does the response (fraction Kif5A bound) read?
**A.** Its response (fraction Kif5A bound) is 0.94.

**Q.** How did the response (fraction Kif5A bound) turn out when B5 was run?
**A.** Its response (fraction Kif5A bound) is 0.73.

**Q.** B6 was tested. Which response (fraction Kif5A bound) did it give?
**A.** Its response (fraction Kif5A bound) is 0.95.

Each binder was assayed against T1, taxol-stabilized microtubules … (assay: MT pelleting assay (western blot densitometry), fitted curve). Details: chain shown with the change; 5 mM AMPPNP; fitted curve read at 8 µM tubulin; parent: est. 0.95; read off a plot.

**Q.** B1 was tested. Which response (fraction Kif5A bound) did it give?
**A.** The response (fraction Kif5A bound) was 0.86.

**Q.** Which response (fraction Kif5A bound) does the source give for B2 here?
**A.** Its response (fraction Kif5A bound) is 0.47.

**Q.** Which response (fraction Kif5A bound) does the source give for B3 here?
**A.** Its response (fraction Kif5A bound) is 0.79.

**Q.** B4 was tested. Which response (fraction Kif5A bound) did it give?
**A.** The response (fraction Kif5A bound) was 1.

**Q.** For B5, which response (fraction Kif5A bound) is on record?
**A.** Its response (fraction Kif5A bound) is 0.74.

**Q.** Which response (fraction Kif5A bound) does the source give for B6 here?
**A.** The response (fraction Kif5A bound) was 1.

Reference: paper PMC5498027
